The assay deals with β1 and β3 integrin expressing HEK293T cells. Description: Yeast surface display binding of mutant APCs on HEK293 cells. Set-up: species or system human. The source says: A broad-range of hosts and scaffolds based on ribosome display, phage display, and cell-surface display are used widely as systems to implement directed evolution (Hoogenboom, Nat. Biotechnol. 23:1105 (2005)). Among the cell surface display systems based on microbial and eukaryotic hosts, the yeast system offers the unique advantage of eukaryotic machinery that enables post-translational modification, glycosylation, and disulfide isomerization (Wittrup, Curr. Opin. Biotechnol. 12:392 (2001)). […] The yeast display system that was used employs the α-agglutinin yeast adhesion receptor to display recombinant proteins on cell surface of S. cerevisiae. The receptor consists of two proteins, Aga1 and Aga2 (FIG. 6). Aga1 is secreted and becomes covalently attached to β-glucan in the extracellular matrix of the yeast cell wall. Aga2 binds to Aga1 through two disulfide bonds, making it possible to express a protein of interest fused to Aga2.
Mixtures of 1 μg cDNA library and 0.5 μg of the Nhe1/BamH1 linearized pCTCON vector in 5 μl were transformed into 10^8 yeast cells by electroporation, which lead to ˜10^6 diversity in the library. Inside the cells, the cDNA library was recombined into the vector by the endogenous Gap repair protein. The yeast library of the human protein C was activated by thrombin. […]

B1: KR146/147GG+R177G: APC with combined substitutions K146G, R147G and R177G (protein)
chain: ANSFLEELRHSSLERECIEEICDFEEAKEIFQNVDDTLAFWSKHVDGDQCLVLPLEHPCASLCCGHGTCIDGIGSFSCDCRSGWEGRFCQREVSFLNCSLDNGGCTHYCLEEVGWRRCSCAPGYKLGDDLLQCHPAVKFPCGRPWGGMEKKRSHLKRDTEDQEDQVDPRLIDGKMTGRGDSPWQVVLLDSKKKLACGAVLIHPSWVLTAAHCMDESKKLLVRLGEYDLRRWEKWELDLDIKEVFVHPNYSKSTTDNDIALLHLAQPATLSQTIVPICLPDSGLAERELNQAGQETLVTGWGYHSSREKEAKRNRTFVLNFIKIPVVPHNECSEVMSNMVSENMLCAGILGDRQDACEGDSGGPMVASFHGTWFLVGLVSWGEGCGLLHNYGVYTKVSRYLDWIHGHIRDKEAPQKSWAP
For the molecule B1, the “binding of yeast expressing mutant APC on HEK293 cells compared to WT APC” value is reported as “further enhanced”.

Values taken from US8916149B2, “Preventing and treating sepsis” (University of Rochester, priority 2008, dated 2014).
